# Assays:
# Experiment in all cases: BLI (Octet)
# Cyno CD47 (Cyno monkey) = molecular target: Cyno CD47 (Cyno monkey)
# Human CD47 (human) = Human CD47 (human) (UniProt Q08722)
# Rat CD47 (rat) = Rat CD47 (rat) (UniProt P97829)
# Rat CD47 (rat), sequence (P97829 19-140): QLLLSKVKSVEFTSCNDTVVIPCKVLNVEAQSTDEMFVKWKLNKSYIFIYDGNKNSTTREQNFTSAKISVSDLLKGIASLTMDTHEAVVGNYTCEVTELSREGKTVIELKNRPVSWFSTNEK
# Human CD47 (human), sequence (Q08722 19-139): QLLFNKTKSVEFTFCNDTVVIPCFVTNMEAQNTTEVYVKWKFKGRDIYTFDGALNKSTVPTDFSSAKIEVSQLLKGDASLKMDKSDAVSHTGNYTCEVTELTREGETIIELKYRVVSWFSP
substance,measurement,setting,value
Anti-human CD47 (clone MIAP410),Kd,Cyno CD47 (Cyno monkey),0.289 nM
same,Kd,Human CD47 (human),0.216 nM
same,Kd,Rat CD47 (rat),1.16 nM

# — patent US20230365648A1
